B1: CADM3312 hG4PE(R409K) (antibody, V domains shown)
VH: QLQLQESGPGLVKPSETLSLTCSVSGGSIRGHYWSWIRQPPGKGLEWMGYINHIGSAAYNPSLKSRVTISVDTSKNQFSLKLSSVTAADTAVYYCARMGPWWELDYWGQGTLVTVSS
VL: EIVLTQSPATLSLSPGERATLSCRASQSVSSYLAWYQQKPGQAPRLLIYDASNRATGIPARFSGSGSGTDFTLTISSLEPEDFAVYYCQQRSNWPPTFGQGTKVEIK
notes: Human IgG4 variant (S228P, L235E, R409K), vector pCI-hKG4PE(R409K)
B2: CADM3301 hG4PE(R409K) (antibody, V domains shown)
VH: QMQLVQSGAEVKKPGSSVKVSCKASGGTFNNYAISWVRQAPGQGLEWMGGNIPLSGTPKYAQKFQGRITMTADKSTSTEYMELSSLTSEDTAVYYCARDTPSGYNSPYYYKGMDVWGQGTMVTVSS
VL: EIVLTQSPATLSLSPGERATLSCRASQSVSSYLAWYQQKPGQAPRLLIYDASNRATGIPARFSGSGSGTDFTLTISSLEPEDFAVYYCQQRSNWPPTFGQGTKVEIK
notes: as for B1
B3: CADM3219 hG4PE(R409K) (antibody, V domains shown)
VH: QVQLVQSGAEVKKPGASVKVSCKASGYSFTGYYIHWVRQAPGQGLEWMGRINPNSGGTTYAPKFQGRFTMTRDTSTTTVYLELSGLRSEDTAVYYCARVLERQGRPFEADAFDIWGQGTMVTVSS
VL: not shown
notes: as for B1
B4: CADM3102 scFv-hG4PE (Fc fusion)
VH: QMQLVQSGAEVKKPGSSVKVSCKASGGTFSSYAISWVRQAPGQGLEWMGGIIPMSGTANYAQKFQGRVTITADESTSTAYMELSSLRSEDTAVYYCARVEESGWYDHYHGMDVWGQGTTVTVSS
VL: DVVMTQSPLSLPVTPGEPASISCTSSQSLLYSNGFNYLDWYLQKPGQSPQLLIYLGSNRASGVPDRFSGSGSGTDFTLKISRVEAEDVGVYYCMQALTTHPTFGGGTKVDIK
notes: also called anti-CADM3 scFv-Fc antibody
B5: iCADM3_3R1-L5 VHH-hG4PE(R409K) (Fc fusion)
chain: QVQLVESGGGLVQAGGSLRLSCAASGSIVSVNAMGWYRQAPGKQRELVATITSGGSTNYADSAKGRFTISRDNAKNTMYLQMNSLKPEDTAVYYCNGEFWSRRDTRPPGVVNYWGQGTQVTVSS
notes: VHH-Fc antibody; also called anti-CADM3 VHH-Fc antibody iCADM3_3R1-L5; not shown: Hinge-CH2-CH3 region of the human IgG4 heavy chain constant region (IgG4 variant)
B6: iCADM3_3R1-L11 VHH-hG4PE(R409K) (Fc fusion)
chain: QVQLVESGGGLVQAGGSLRLSCAASGSIFSFNAMGWYRQAPGKQRGLVAVITSGGYTNYADSVKGRFTITRDNAKNTVYLQMNSLKPEDTAVYYCNAEGVYSDYVIMNYWGQGTQVTVSS
notes: VHH-Fc antibody; also called anti-CADM3 VHH-Fc antibody iCADM3_3R1-L11; not shown: Hinge-CH2-CH3 region of the human IgG4 heavy chain constant region (IgG4 variant)
B7: CADM3309 hG4PE(R409K) (antibody, V domains shown)
VH: EVQLVQSGAEMKKPGSSVKLSCKFSGGDFRSYPISWVRQAPGQGLEWMGGIIPIFSRVNYAQRFLGRITITADESTSTAYMELRSLTSDDTAVYYCATDTPSGYNSPYYYKGMDVWGQGTLVTVSS
VL: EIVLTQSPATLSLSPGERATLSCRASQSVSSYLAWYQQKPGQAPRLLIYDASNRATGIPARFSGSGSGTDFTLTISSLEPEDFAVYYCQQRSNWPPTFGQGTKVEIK
notes: as for B1
B8: iCADM3_3R1-L10 VHH-hG4PE(R409K) (Fc fusion)
chain: QVQLVESGGGLVQAGGSLRLSCAASGSIFSIHAMGWYRQAPGKQRELVATVTSGGSTNYADSVKGRFTISRDNAKNTVYLQMNSLKPEDTAVYYCNAETPYYSSTYYTNYWGQGTQVTVSS
notes: VHH-Fc antibody; also called anti-CADM3 VHH-Fc antibody iCADM3_3R1-L10; not shown: Hinge-CH2-CH3 region of the human IgG4 heavy chain constant region (IgG4 variant)
B9: CADM301 scFv-hG4PE (Fc fusion)
VH: QVQLVQSGAEVRRPGTSVKVSCKASGYSFTSYDINWVRLATGQGLEWMGWMNPNTGDTGSPQKFQDRVTMTRDISTGTAYLELRGLKSEDTAIYYCARGFLVTAYTAEFFPHWGQGTLVTVSS
VL: SYVLTQPPSVSVAPGKTARLTCGGNNIGSKSVHWYQQRPGQAPVLVINYDSDRPSGIPERFSGSNSENTATLTISRVEAGDEADYYCQVWDSGSDHVVFGGGTQLIIL
notes: as for B4

Assays:
hCADM3-GST = molecular target: T1, hCADM3-GST (human); assay: SPR (Biacore T-100), antibody captured, hCADM3-GST as analyte
T1 construct: also called extracellular domain of human CADM3 to which GST was added at the C-terminal side; human CADM3-GST
Experimental: (§1) The affinity of the anti-CADM3 antibodies produced in Example 2 for human CADM3 and mouse CADM3 was measured using Biacore T-100 (GE Healthcare). Each of the antibodies was immobilized on a […] sensor chip using a Human antibody Capture kit, and the binding ability was evaluated using hCADM3-GST and mCADM3-GST produced in Example 4 as analytes.
(§2) The obtained sensorgram was analyzed with BIA evaluation software, and the dissociation constant (KD value) was calculated.

mCADM3-GST = molecular target: T2, mCADM3-GST (mouse); assay: SPR (Biacore T-100), antibody captured, mCADM3-GST as analyte
T2 construct: also called extracellular domain of mouse CADM3 to which GST was added at the C-terminal side; mouse CADM3-GST
Experimental: as §1, §2

human CADM3 = molecular target: T3, human CADM3 (human, UniProt Q8N126 25-398); assay: flow cytometry, 10 ug/mL, human CADM3/Expi293F vs parent Expi293F cells
T3 construct: Full-length gene expressed transiently on Expi293F cells; also called cell adhesion molecule 3; human CADM3/Expi293F cells
T3 sequence: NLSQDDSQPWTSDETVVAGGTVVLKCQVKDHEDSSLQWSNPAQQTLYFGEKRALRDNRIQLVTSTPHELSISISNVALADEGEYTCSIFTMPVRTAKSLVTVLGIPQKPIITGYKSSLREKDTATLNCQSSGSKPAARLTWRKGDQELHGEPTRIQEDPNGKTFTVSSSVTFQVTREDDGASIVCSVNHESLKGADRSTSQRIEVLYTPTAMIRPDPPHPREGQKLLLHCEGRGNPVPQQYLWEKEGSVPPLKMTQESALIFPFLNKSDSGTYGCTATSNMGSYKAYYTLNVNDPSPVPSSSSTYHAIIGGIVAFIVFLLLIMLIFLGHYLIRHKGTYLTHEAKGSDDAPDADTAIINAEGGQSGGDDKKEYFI
Experimental: By using the cells, the reactivity of the antibodies produced in Example 2 with the CADM3-expressing cells was analyzed by a fluorescence activated cell sorting (FACS) method according to the following procedure.
After washing with SB, the cells were suspended in SB, and the fluorescence intensity of each cell was measured using a flow cytometer FACS CANTO II (manufactured by Becton, Dickinson and Company). Note that as a negative control, 10 μg/mL of the anti-AVM antibody was used.
The detection results were analyzed, and a mean fluorescence intensity (MFI) was calculated using a geometric mean. Further, with respect to the MFI when the concentration of each antibody was 10 μg/mL, the ratio of the MFI (mean fluorescence intensity ratio) between the human CADM3/Expi293F cells and the Expi293F cells (parent cell line) was calculated.

mouse CADM3 = molecular target: T4, mouse CADM3 (mouse, UniProt Q99N28 23-396); assay: flow cytometry, 10 ug/mL, mouse CADM3/Expi293F vs parent Expi293F cells
T4 construct: Full-length gene expressed transiently on Expi293F cells; also called mouse CADM3/Expi293F cells; Mouse CADM3-expressing cells
T4 sequence: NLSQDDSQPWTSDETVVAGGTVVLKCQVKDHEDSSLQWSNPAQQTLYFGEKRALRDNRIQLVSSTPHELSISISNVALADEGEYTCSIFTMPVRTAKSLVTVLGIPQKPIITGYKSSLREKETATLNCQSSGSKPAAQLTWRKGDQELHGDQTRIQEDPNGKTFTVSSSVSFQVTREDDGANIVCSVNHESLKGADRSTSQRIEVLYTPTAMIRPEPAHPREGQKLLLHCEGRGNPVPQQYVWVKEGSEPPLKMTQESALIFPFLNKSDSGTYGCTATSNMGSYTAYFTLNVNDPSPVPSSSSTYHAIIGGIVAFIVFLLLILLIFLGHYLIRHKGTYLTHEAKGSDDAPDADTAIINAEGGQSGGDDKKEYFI

Row | Binder | binding result (hCADM3-GST) | binding result (mCADM3-GST) | Mean fluorescence intensity ratio (human CADM3) | Mean fluorescence intensity ratio (mouse CADM3)
1 | B1 | binds | binds | 34.4 | 31.6
2 | B2 | binds | binds | 6 | 6.2
3 | B3 | binds | binds | 7.3 | 9.2
4 | B4 | binds | binds | 52.3 | 42.6
5 | B5 | binds | binds | 25.1 | 4.21
6 | B6 | binds | binds | 32.2 | 35.5
7 | B7 | binds | binds | 10.2 | 12.5
8 | B8 | binds | binds | 37.5 | 8.87
9 | B9 | binds | binds | 4.22 | 8.08

Reference: patent US20210147541A1 (Kyowa Kirin, published 2021)
